Legend:
[1] = biological target: T1, mutant Huntingtin exon 1 (mHttQ51) (Homo sapiens, UniProt P42858, INS38QQQQQQQQQQQQQQQQQQQQQQQQQQQQQQQ); test: In vitro filter trap aggregation assay of mutant Huntingtin exon 1; format: biochemical; details: 5× or 10× molar excess of peptides
T1 construct: mutant Huntingtin exon 1 containing a pathogenic stretch of 51 glutamines (mHttQ51); GST (N, cleaved yes); made in house; host or cells: E. coli Rosetta 2(DE3) pLysS
Protocol: Mutant Huntingtin and PolyQ51 aggregation reactions were performed at concentration 3 μM of mHttQ51, 0.044 Units/μl acTEV protease (Invitrogen, Carlsbad, CA, USA), and respective concentrations of Ovalbumin (Sigma) or purified NAC chaperone variants. Aggregation was conducted in TEV reaction buffer (Invitrogen) and incubated at 30° C. AtxQ78 was buffer exchanged into TEV reaction buffer using 7K MWCO Zeba Spin Desalting Columns (Thermo Fisher) to initiate aggregation. AtxQ78 aggregation reactions were performed at 30 μM of Ataxin-3 in reaction buffer (20 mM sodium phosphate pH 7.5, 25 mM NaCl, 6 mM MgCl2, 2 mM DTT, 5% (v/v) glycerol) and incubated at 37° C. Samples at varied time-points were then taken and combined in a 1:1 ratio with a 4% (w/v) SDS, 100 mM DTT solution, boiled for 5 min at 95° C., and stored at −20° C. Samples were then filtered through a 0.22 μm cellulose acetate membrane (Whatman) and washed with 0.1% (w/v) SDS. Membrane was probed using an S-tag antibody (Abcam) for mHttQ51 and PolyQ51, and with a His-tag antibody (Abcam) for AtxQ78.

[2] = test system: yeast model systems and tissue culture cells; test: Neurotoxicity associated with Huntington's Disease in yeast model systems and tissue culture cells; format: cell-based; details: elevated levels of the subunit

T1 sequence (P42858 with tags, fused parts or gaps with the stated changes limits assumed): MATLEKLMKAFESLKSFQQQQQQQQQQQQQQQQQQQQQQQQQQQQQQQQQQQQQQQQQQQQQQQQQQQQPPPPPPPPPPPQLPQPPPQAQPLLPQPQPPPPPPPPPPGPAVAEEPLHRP

Q: Which mHttQ51 aggregation [1] does the source give for “C. elegans N-βNAC peptide: synthetic peptide corresponding to the N-terminal region of C. elegans βNAC (SEQ ID NO:1) (MDSKAIAERIKKLQAQQEHVRIGGKGTPRRKKKVIHKTAA)” here?
A: sufficient to suppress aggregation of mHttQ51

Q: “full length CCT1 subunit: single subunit of the TRiC/CCT chaperonin complex” was tested. Which “neurotoxicity associated with Huntington's Disease” value [2] did it give?
A: suppress neurotoxicity

Source: patent publication US12338268B2, “Compositions and methods for treating protein aggregation-associated diseases” (The Board of Trustees of the Leland Stanford Junior …, priority 2019, dated 2025)
